Measured values from the supplement of paper PMC12855868.

B1: library; numbered along this chain (parent)
chain: MAAAGGARLLRAASAVLGGPAGRWLHHAGSRAGSSGLLRNRGPGGSAEASRSLSVSARARSSSEDKITVHFINRDGETLTTKGKVGDSLLDVVVENNLDIDGFGACEGTLACSTCHLIFEDHIYEKLDAITDEENDMLDLAYGLTDRSRLGCQICLTKSMDNMTVRVPETVADARQSIDVGKTS

Variants of: B1
Assay: scaled log2 fold change in cell abundance, elesclomol vs control (0 = silent mean, 1 = nonsense mean) (scaled log2 ratio); higher = higher viability under elesclomol (loss of FDX1 cuproptosis function)
Conditions: glucose 10 mM
[1] = with ABC1 FDX1 KO, elesclomol 5 nM, 14 days
[2] = with HEK293T FDX1 KO, elesclomol 40 nM, 11 days
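Also: variant abundance is its share of total variant reads in each endpoint sample, from next-generation sequencing of the integrated ORF PCR-amplified out of genomic DNA.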

Variant | scaled log2 fold change [1] | scaled log2 fold change [2]
A172Q | 0.194 | 0.591
A172V | 0.337 | -0.531
A172P | -0.333 | 0.355
A172R | -0.163 | 0.124
A172G | -0.0465 | 0.05
A172E | 0.236 | 0.926
A172Y | 0.17 | 
A172D | 0.0896 | 1.11
A172I | 0.216 | 1.09
A172T | -0.0186 | 1.1
A172W | 0.0817 | 0.744
A172M | -0.557 | -0.421
A172C | -0.253 | -0.168
A172S | 0.42 | 0.922
A172N | -0.267 | -0.223
A172K | 0.212 | 
A172H | -0.391 | 0.0671
A172L | -0.0445 | -0.675
A172F | -0.0712 | 0.241
V171Q | -0.00995 | 0.876
V171L | 0.231 | 0.229
V171W | 0.0569 | 0.292
V171Y | -0.342 | -0.405
V171E | 0.182 | -0.192

Variant | scaled log2 fold change [1] | scaled log2 fold change [2]
V171T | -0.214 | -0.343
V171A | -0.586 | 0.229
V171P | 0.142 | 0.0269
V171F | 0.0552 | -0.419
V171I | -0.139 | 0.238
V171K | 4.83e-05 | -0.343
V171H | -0.198 | -0.163
V171N | -0.524 | 0.216
V171S | -0.0546 | 0.136
V171C | -0.178 | -0.0893
V171D | -0.592 | -0.239
V171M | 0.452 | 0.0122
V171R | -0.31 | -0.328
V180R | -0.02 | -0.285
V180P | -1.19 | 0.824
V180N | 0.00503 | -0.0838
V180S | -0.754 | -1.45
V180L | -0.0572 | -0.104
V180E | -0.352 | -0.141
V180D | 0.293 | 
V180F | 0.0635 | 0.0689
V180C | 0.235 | 0.216
V180H | -0.37 | 1.19
V180G | 0.144 | -0.341

Variant | scaled log2 fold change [1] | scaled log2 fold change [2]
V180Q | 0.0492 | -0.00162
V180W | -0.111 | 0.322
V180K | -0.341 | 0.164
V180M | 0.313 | 0.491
V180Y | -0.084 | 0.873
V180I | 0.213 | 
V180A | -0.00321 | 2.72
V180T | 0.143 | -0.33
D173E | 0.188 | 1.27
D173M | -0.417 | 0.0547
D173C | -0.031 | 0.0714
D173A | 0.245 | 0.105
D173V | 0.418 | -0.196
D173L | -0.299 | 0.205
D173N | 0.304 | -0.47
D173H | 0.000185 | -0.579
D173Y | 0.241 | -0.0391
D173W | -0.0293 | 
D173F | 0.306 | -0.0815
D173R | 0.198 | 0.613
D173P | 0.0487 | 0.601
D173Q | 0.224 | 0.251
D173K | 0.645 | 0.0902
D173G | 0.473 | -0.138

Variant | scaled log2 fold change [1] | scaled log2 fold change [2]
D173S | 0.248 | -0.827
D173T | -0.0187 | 
G181F | 0.316 | 0.167
G181V | -0.396 | 
G181I | 0.268 | 0.0446
G181Y | 0.093 | -0.568
G181P | -0.164 | -0.548
G181K | 0.227 | -0.659
G181A | -0.623 | -0.352
G181C | -0.0449 | -0.501
G181M | -1.35 | 0.389
G181H | -0.157 | 0.112
G181E | -0.223 | -0.4
G181D | 0.217 | -0.438
G181S | 0.113 | 0.902
G181W | 0.226 | 0.364
G181T | 0.225 | -0.186
G181N | 0.125 | 
G181R | -0.0624 | 0.814
G181L | 0.185 | 
G181Q | -0.419 | -0.21
R175Q | -1.39 | -0.894
R175G | 0.394 | 
R175E | 0.417 | 0.643

Variant | scaled log2 fold change [1] | scaled log2 fold change [2]
R175Y | 0.225 | -0.118
R175L | 0.518 | 
R175N | 0.0623 | 0.495
R175A | 0.455 | -0.138
R175M | -0.223 | 0.0945
R175D | 0.148 | 1.25
R175F | 0.208 | 0.0272
R175C | -0.0756 | 0.45
R175H | 0.468 | -0.908
R175W | 0.307 | -0.0023
R175V | 0.472 | -0.0442
R175K | 0.138 | -0.161
R175S | 0.343 | 0.224
R175T | 0.48 | 0.313
R175I | -0.385 | 0.157
R175P | -0.117 | 0.128
Q176A | 0.239 | 0.8
Q176R | -0.155 | 0.492
Q176T | -0.0483 | -0.279
Q176P | 0.375 | 0.159
Q176D | -0.118 | -0.177
Q176Y | 0.0438 | 1.3
Q176S | -0.0172 | -0.0154
Q176L | -0.0736 | -0.65

Variant | scaled log2 fold change [1] | scaled log2 fold change [2]
Q176E | 0.157 | -0.685
Q176H | -0.0199 | 0.909
Q176I | 0.324 | -0.471
Q176V | 0.192 | -0.626
Q176G | -0.184 | -0.11
Q176F | -0.29 | 0.182
Q176K | 0.426 | 0.463
Q176W | -0.225 | 0.328
Q176M | 0.291 | 
Q176C | 0.128 | -0.158
Q176N | -0.0287 | 1.21
A174H | 0.267 | -0.0112
A174C | -0.397 | 
A174S | -0.111 | -0.662
A174G | -0.324 | 0.643
A174L | 0.255 | 0.483
A174K | -0.0242 | 0.0836
A174Y | 0.11 | 0.358
A174Q | -0.051 | 
A174R | -0.108 | 0.908
A174M | 0.0375 | -0.275
A174F | -1.02 | -1.07
A174E | -0.219 | 0.0347
A174D | -0.995 | 0.361

Variant | scaled log2 fold change [1] | scaled log2 fold change [2]
A174W | 0.23 | -0.353
A174N | -0.0564 | 
A174T | 0.187 | -0.546
A174P | -0.155 | -0.277
A174V | 0.037 | -0.188
A174I | 0.163 | 0.249
T170Q | 0.241 | -0.893
T170S | -0.088 | -0.432
T170N | -0.0752 | 0.953
T170K | 0.0703 | 0.727
T170I | -0.092 | 0.126
T170M | -0.185 | 
T170P | -0.219 | 0.16
T170H | -0.102 | -1.19
T170R | -0.159 | 
T170W | -0.0505 | 0.993
T170V | -0.0936 | -0.713
T170Y | 0.0553 | -0.221
T170L | -0.0824 | -0.244
D179V | -0.0481 | 0.172
D179G | 0.226 | 0.304
D179F | -0.352 | 0.995
D179I | -0.885 | 0.926
D179T | 0.106 | 0.00101

Variant | scaled log2 fold change [1] | scaled log2 fold change [2]
D179H | 0.224 | 
D179M | 0.0418 | -0.494
D179S | 0.558 | 0.929
D179N | 0.063 | 
D179K | 0.53 | -0.385
D179Q | 0.442 | -0.984
D179E | -0.000144 | 0.0611
D179Y | 0.0967 | -0.339
D179P | -0.26 | 0.0267
D179C | 0.369 | -0.227
D179L | 0.0184 | 1.12
D179A | -0.393 | -0.278
D179W | 0.235 | 
D179R | 0.498 | -0.221
K182M | -0.000782 | -0.0296
K182T | 0.134 | -0.0291
K182W | 0.0276 | 0.909
K182V | -0.251 | 0.182
K182P | 0.201 | 
K182S | 0.0077 | -0.584
K182Y | 0.0751 | -0.398
K182E | -0.363 | -1.19
K182R | -0.345 | 0.0141
K182N | 0.127 | 0.75

Variant | scaled log2 fold change [1] | scaled log2 fold change [2]
K182A | 0.0976 | -0.691
K182F | 0.103 | -0.11
K182H | -0.181 | -0.354
K182C | -0.0381 | -0.334
K182D | 0.0891 | 
K182G | 0.289 | 
K182I | 0.114 | 0.677
K182Q | 0.399 | -0.145
K182L | -0.0698 | 0.171
I178M | -0.147 | 0.0752
I178D | 0.156 | 1.21
I178W | 0.246 | -0.636
I178N | 0.142 | 0.216
I178V | -0.343 | 0.0591
I178Q | -0.0255 | 0.28
I178A | -0.325 | 0.476
I178Y | -1.49 | 0.141
I178R | 0.265 | -0.46
I178F | -0.214 | 0.801
I178S | 0.197 | 0.0683
I178C | 0.576 | -0.695
I178G | -0.381 | 
I178P | -0.0627 | 0.399
I178K | 0.421 | 1.24

Variant | scaled log2 fold change [1] | scaled log2 fold change [2]
I178E | 0.2 | -0.114
I178L | 0.552 | -0.187
I178H | -0.366 | 0.244
I178T | 0.00283 | -0.626
S177L | -0.34 | -0.529
S177M | -0.566 | 0.0434
S177G | -0.315 | 0.0748
S177F | -0.0241 | -0.0862
S177P | -0.213 | -0.486
S177T | -0.0709 | -0.492
S177E | -0.0815 | -0.019
S177N | 0.00267 | 0.0839
S177H | 0.139 | -0.562
S177D | -1.44 | -0.675
S177R | -0.0538 | -0.798
S177W | 0.0273 | 0.264
S177Q | 0.143 | -0.314
S177K | 0.281 | -0.228
S177Y | -1.05 | 0.126
S177I | -0.08 | 0.665
S177C | -0.309 | 
S177A | -0.0907 | 
S177V | -0.287 | 0.49
